Here are results for 91 substances from the Human Domainome abundance scans (Beltran et al. 2025).

± gives the uncertainty stated by the source.

The nature of the data set: abundance fitness (aPCA) (normalised: wild type 0, dead -1); higher = more abundant; growth selection in yeast, the domain comes from the species named. The settings on record: Homo sapiens.
Turning to “DnaJ homolog subfamily B member 1 L9Q, P25685”, the abundance fitness is -0.649 ± 0.095.

Turning to “DnaJ homolog subfamily B member 1 L9R, P25685”, the abundance fitness is -1.01 ± 0.095.

As to “DnaJ homolog subfamily B member 1 L9S, P25685”, the abundance fitness is -0.681 ± 0.079.

Take “DnaJ homolog subfamily B member 1 L9T, P25685”: the abundance fitness was -0.69 ± 0.14.

Consider “DnaJ homolog subfamily B member 1 L9V, P25685”, for which the abundance fitness was -0.697 ± 0.17.

As for “DnaJ homolog subfamily B member 1 L9W, P25685”, the abundance fitness is -1.25 ± 0.17.

As for “DnaJ homolog subfamily B member 1 L9Y, P25685”, the abundance fitness was -0.818 ± 0.11.

For “DnaJ homolog subfamily B member 1 L11A, P25685”, the abundance fitness is -0.147 ± 0.078.

As for “DnaJ homolog subfamily B member 1 L11C, P25685”, the abundance fitness is -0.018 ± 0.088.

Take “DnaJ homolog subfamily B member 1 L11D, P25685”: the abundance fitness was -0.776 ± 0.16.

“DnaJ homolog subfamily B member 1 L11E, P25685”: the abundance fitness is -0.5 ± 0.15.

Regarding “DnaJ homolog subfamily B member 1 L11F, P25685”, the abundance fitness is -0.949 ± 0.11.

On to “DnaJ homolog subfamily B member 1 L11G, P25685”, for which the abundance fitness is -0.773 ± 0.071.

With “DnaJ homolog subfamily B member 1 L11H, P25685”, the abundance fitness is -0.795 ± 0.15.

Substance “DnaJ homolog subfamily B member 1 L11I, P25685” registered an abundance fitness of 0.015 ± 0.1.

“DnaJ homolog subfamily B member 1 L11K, P25685”: the abundance fitness was -0.849 ± 0.19.

For the substance “DnaJ homolog subfamily B member 1 L11M, P25685”, the abundance fitness was -0.423 ± 0.12.

Consider “DnaJ homolog subfamily B member 1 L11N, P25685”, for which the abundance fitness was -0.712 ± 0.12.

As to “DnaJ homolog subfamily B member 1 L11P, P25685”, the abundance fitness was -0.759 ± 0.12.

For “DnaJ homolog subfamily B member 1 L11Q, P25685”, the abundance fitness is -0.464 ± 0.14.

With “DnaJ homolog subfamily B member 1 L11R, P25685”, the abundance fitness was -0.96 ± 0.075.

Take “DnaJ homolog subfamily B member 1 L11S, P25685”: the abundance fitness was -0.381 ± 0.081.

In the case of “DnaJ homolog subfamily B member 1 L11T, P25685”, the abundance fitness was -0.209 ± 0.11.

For the substance “DnaJ homolog subfamily B member 1 L11V, P25685”, the abundance fitness was -0.041 ± 0.065.

As for “DnaJ homolog subfamily B member 1 L11W, P25685”, the abundance fitness is -1.44 ± 0.15.

In the case of “DnaJ homolog subfamily B member 1 L11Y, P25685”, the abundance fitness is -1.1 ± 0.13.

As to “DnaJ homolog subfamily B member 1 L29A, P25685”, the abundance fitness is -0.167 ± 0.085.

As to “DnaJ homolog subfamily B member 1 L29C, P25685”, the abundance fitness is -0.119 ± 0.086.

Take “DnaJ homolog subfamily B member 1 L29D, P25685”: the abundance fitness is -0.089 ± 0.16.

In turn, “DnaJ homolog subfamily B member 1 L29E, P25685” had an abundance fitness of 0.067 ± 0.15.

Consider “DnaJ homolog subfamily B member 1 L29F, P25685”, for which the abundance fitness was -0.04 ± 0.077.

With “DnaJ homolog subfamily B member 1 L29G, P25685”, the abundance fitness was 0.01 ± 0.083.

Take “DnaJ homolog subfamily B member 1 L29H, P25685”: the abundance fitness was -0.015 ± 0.12.

For the substance “DnaJ homolog subfamily B member 1 L29I, P25685”, the abundance fitness came to 0.116 ± 0.12.

Regarding “DnaJ homolog subfamily B member 1 L29K, P25685”, the abundance fitness was -0.116 ± 0.08.

Take “DnaJ homolog subfamily B member 1 L29M, P25685”: the abundance fitness is -0.234 ± 0.12.

Take “DnaJ homolog subfamily B member 1 L29N, P25685”: the abundance fitness is -0.572 ± 0.3.

In the case of “DnaJ homolog subfamily B member 1 L29P, P25685”, the abundance fitness is -0.461 ± 0.16.

The substance “DnaJ homolog subfamily B member 1 L29Q, P25685” returned an abundance fitness of 0.086 ± 0.18.

For “DnaJ homolog subfamily B member 1 L29R, P25685”, the abundance fitness is -0.06 ± 0.077.

For “DnaJ homolog subfamily B member 1 L29S, P25685”, the abundance fitness was -0.138 ± 0.058.

With “DnaJ homolog subfamily B member 1 L29T, P25685”, the abundance fitness is -0.131 ± 0.072.

For “DnaJ homolog subfamily B member 1 L29V, P25685”, the abundance fitness is -0.052 ± 0.076.

For the substance “DnaJ homolog subfamily B member 1 L29W, P25685”, the abundance fitness is -0.111 ± 0.068.

Regarding “DnaJ homolog subfamily B member 1 L29Y, P25685”, the abundance fitness was -0.008 ± 0.089.

As for “DnaJ homolog subfamily B member 1 L55C, P25685”, the abundance fitness was -0.788 ± 0.2.

In the case of “DnaJ homolog subfamily B member 1 L55E, P25685”, the abundance fitness was -0.752 ± 0.099.

Consider “DnaJ homolog subfamily B member 1 L55F, P25685”, for which the abundance fitness is -0.649 ± 0.1.

As to “DnaJ homolog subfamily B member 1 L55G, P25685”, the abundance fitness is -0.687 ± 0.081.

For the substance “DnaJ homolog subfamily B member 1 L55H, P25685”, the abundance fitness is -0.686 ± 0.14.

In the case of “DnaJ homolog subfamily B member 1 L55I, P25685”, the abundance fitness is -0.354 ± 0.11.

Regarding “DnaJ homolog subfamily B member 1 L55K, P25685”, the abundance fitness was -0.781 ± 0.11.

As to “DnaJ homolog subfamily B member 1 L55M, P25685”, the abundance fitness was -0.464 ± 0.11.

Regarding “DnaJ homolog subfamily B member 1 L55N, P25685”, the abundance fitness is -0.603 ± 0.17.

Take “DnaJ homolog subfamily B member 1 L55P, P25685”: the abundance fitness is -0.705 ± 0.088.

For the substance “DnaJ homolog subfamily B member 1 L55Q, P25685”, the abundance fitness is -0.747 ± 0.1.

Turning to “DnaJ homolog subfamily B member 1 L55R, P25685”, the abundance fitness is -0.769 ± 0.069.

As to “DnaJ homolog subfamily B member 1 L55S, P25685”, the abundance fitness is -0.524 ± 0.086.

“DnaJ homolog subfamily B member 1 L55T, P25685”: the abundance fitness is -0.636 ± 0.1.

With “DnaJ homolog subfamily B member 1 L55V, P25685”, the abundance fitness was -0.347 ± 0.08.

On to “DnaJ homolog subfamily B member 1 L55W, P25685”, for which the abundance fitness was -0.932 ± 0.1.

As to “DnaJ homolog subfamily B member 1 L55Y, P25685”, the abundance fitness was -0.873 ± 0.16.

“DnaJ homolog subfamily B member 1 N36A, P25685” had an abundance fitness of 0.038 ± 0.084.

“DnaJ homolog subfamily B member 1 N36C, P25685”: the abundance fitness was found to be 0.124 ± 0.17.

As for “DnaJ homolog subfamily B member 1 N36D, P25685”, the abundance fitness was -0.221 ± 0.12.

“DnaJ homolog subfamily B member 1 N36E, P25685”: the abundance fitness is -0.174 ± 0.084.

As for “DnaJ homolog subfamily B member 1 N36F, P25685”, the abundance fitness was -0.415 ± 0.12.

On to “DnaJ homolog subfamily B member 1 N36G, P25685”, for which the abundance fitness is -0.029 ± 0.08.

As to “DnaJ homolog subfamily B member 1 N36H, P25685”, the abundance fitness was determined as 0.002 ± 0.11.

Consider “DnaJ homolog subfamily B member 1 N36I, P25685”, for which the abundance fitness is -0.181 ± 0.13.

For “DnaJ homolog subfamily B member 1 N36K, P25685”, the abundance fitness was -0.112 ± 0.085.

“DnaJ homolog subfamily B member 1 N36L, P25685” returned an abundance fitness of 0.009 ± 0.054.

For “DnaJ homolog subfamily B member 1 N36M, P25685”, the abundance fitness was 0.035 ± 0.13.

Turning to “DnaJ homolog subfamily B member 1 N36P, P25685”, the abundance fitness is -0.096 ± 0.086.

Regarding “DnaJ homolog subfamily B member 1 N36R, P25685”, the abundance fitness was -0.14 ± 0.093.

For “DnaJ homolog subfamily B member 1 N36S, P25685”, the abundance fitness was found to be 0.079 ± 0.06.

As for “DnaJ homolog subfamily B member 1 N36T, P25685”, the abundance fitness was found to be 0.092 ± 0.1.

For the substance “DnaJ homolog subfamily B member 1 N36V, P25685”, the abundance fitness is -0.158 ± 0.088.

On to “DnaJ homolog subfamily B member 1 N36W, P25685”, for which the abundance fitness is -0.097 ± 0.099.

Consider “DnaJ homolog subfamily B member 1 N36Y, P25685”, for which the abundance fitness was -0.195 ± 0.11.

On to “DnaJ homolog subfamily B member 1 P33A, P25685”, for which the abundance fitness is -0.055 ± 0.075.

As to “DnaJ homolog subfamily B member 1 P33C, P25685”, the abundance fitness was -0.11 ± 0.1.

For “DnaJ homolog subfamily B member 1 P33E, P25685”, the abundance fitness was -0.096 ± 0.087.

As to “DnaJ homolog subfamily B member 1 P33F, P25685”, the abundance fitness is -0.207 ± 0.093.

Substance “DnaJ homolog subfamily B member 1 P33G, P25685” had an abundance fitness of 0.017 ± 0.064.

Consider “DnaJ homolog subfamily B member 1 P33H, P25685”, for which the abundance fitness was -0.292 ± 0.15.

In the case of “DnaJ homolog subfamily B member 1 P33I, P25685”, the abundance fitness is -0.085 ± 0.097.

On to “DnaJ homolog subfamily B member 1 P33L, P25685”, for which the abundance fitness was -0.091 ± 0.056.

For the substance “DnaJ homolog subfamily B member 1 P33M, P25685”, the abundance fitness came out at 0.039 ± 0.079.

On to “DnaJ homolog subfamily B member 1 P33N, P25685”, for which the abundance fitness was -0.009 ± 0.094.

In turn, “DnaJ homolog subfamily B member 1 P33Q, P25685” showed an abundance fitness of 0.057 ± 0.1.
